In PMC10786891, “Massively parallel profiling of RNA-targeting CRISPR-Cas13d”:

B1: target 1 insA 3' of 11,insA 3' of 8 (mixed)
RNA 1: CACCCGUGCAAAAAUGCAGGGGUCUAAAACUGAGCGGAUAACCUCUCUAUGG
RNA 2: GGGAAUGGAUCCACAUCUACGAAUUCGUACCAUAGAGAGGUAUAUACCGCUCACCGAGAUCGGAAGAGCACACGU
B2: target 1 insU 3' of 20,insU 3' of 12 (mixed)
RNA 1: CACCCGUGCAAAAAUGCAGGGGUCUAAAACUGAGCGGAUAACCUCUCUAUGG
RNA 2: GGGAAUGGAUCCACAUCUACGAAUUCGUACCAUUAGAGAGGUUUAUCCGCUCACCGAGAUCGGAAGAGCACACGU
B3: target 1 insA 3' of 15,insA 3' of 12 (mixed)
RNA 1: CACCCGUGCAAAAAUGCAGGGGUCUAAAACUGAGCGGAUAACCUCUCUAUGG
RNA 2: GGGAAUGGAUCCACAUCUACGAAUUCGUACCAUAGAGAAGGAUUAUCCGCUCACCGAGAUCGGAAGAGCACACGU
B4: target 1 insU 3' of 5,insG 3' of 4 (mixed)
RNA 1: CACCCGUGCAAAAAUGCAGGGGUCUAAAACUGAGCGGAUAACCUCUCUAUGG
RNA 2: GGGAAUGGAUCCACAUCUACGAAUUCGUACCAUAGAGAGGUUAUCCGUCGUCACCGAGAUCGGAAGAGCACACGU
B5: target 1 insG 3' of 14,insG 3' of 14 (mixed)
RNA 1: CACCCGUGCAAAAAUGCAGGGGUCUAAAACUGAGCGGAUAACCUCUCUAUGG
RNA 2: GGGAAUGGAUCCACAUCUACGAAUUCGUACCAUAGAGAGGGGUUAUCCGCUCACCGAGAUCGGAAGAGCACACGU
B6: target 1 C2U,U11C (mixed)
RNA 1: CACCCGUGCAAAAAUGCAGGGGUCUAAAACUGAGCGGAUAACCUCUCUAUGG
RNA 2: GGGAAUGGAUCCACAUCUACGAAUUCGUACCAUAGAGAGGCUAUCCGCUUACCGAGAUCGGAAGAGCACACGU
B7: target 1 complement block 8-12 (mixed)
RNA 1: CACCCGUGCAAAAAUGCAGGGGUCUAAAACUGAGCGGAUAACCUCUCUAUGG
RNA 2: GGGAAUGGAUCCACAUCUACGAAUUCGUACCAUAGAGAGCAAUACCGCUCACCGAGAUCGGAAGAGCACACGU
B8: target 1 A1G,U11C (mixed)
RNA 1: CACCCGUGCAAAAAUGCAGGGGUCUAAAACUGAGCGGAUAACCUCUCUAUGG
RNA 2: GGGAAUGGAUCCACAUCUACGAAUUCGUACCAUAGAGAGGCUAUCCGCUCGCCGAGAUCGGAAGAGCACACGU
B9: target 1 A9C,C22A (mixed)
RNA 1: CACCCGUGCAAAAAUGCAGGGGUCUAAAACUGAGCGGAUAACCUCUCUAUGG
RNA 2: GGGAAUGGAUCCACAUCUACGAAUUCGUAACAUAGAGAGGUUCUCCGCUCACCGAGAUCGGAAGAGCACACGU
B10: target 1 insC 3' of 16,insC 3' of 15 (mixed)
RNA 1: CACCCGUGCAAAAAUGCAGGGGUCUAAAACUGAGCGGAUAACCUCUCUAUGG
RNA 2: GGGAAUGGAUCCACAUCUACGAAUUCGUACCAUAGACGCAGGUUAUCCGCUCACCGAGAUCGGAAGAGCACACGU
B11: target 1 insG 3' of 11,insA 3' of 4 (mixed)
RNA 1: CACCCGUGCAAAAAUGCAGGGGUCUAAAACUGAGCGGAUAACCUCUCUAUGG
RNA 2: GGGAAUGGAUCCACAUCUACGAAUUCGUACCAUAGAGAGGUGUAUCCGCAUCACCGAGAUCGGAAGAGCACACGU
B12: target 1 insG 3' of 9,insG 3' of 3 (mixed)
RNA 1: CACCCGUGCAAAAAUGCAGGGGUCUAAAACUGAGCGGAUAACCUCUCUAUGG
RNA 2: GGGAAUGGAUCCACAUCUACGAAUUCGUACCAUAGAGAGGUUAGUCCGCUGCACCGAGAUCGGAAGAGCACACGU
B13: target 1 del7,del14 (mixed)
RNA 1: CACCCGUGCAAAAAUGCAGGGGUCUAAAACUGAGCGGAUAACCUCUCUAUGG
RNA 2: GGGAAUGGAUCCACAUCUACGAAUUCGUACCAUAGAGGGUUAUCGCUCACCGAGAUCGGAAGAGCACACGU
B14: target 1 insG 3' of 20,insC 3' of 9 (mixed)
RNA 1: CACCCGUGCAAAAAUGCAGGGGUCUAAAACUGAGCGGAUAACCUCUCUAUGG
RNA 2: GGGAAUGGAUCCACAUCUACGAAUUCGUACCAGUAGAGAGGUUACUCCGCUCACCGAGAUCGGAAGAGCACACGU
B15: target 1 insU 3' of 5,insU 3' of 1 (mixed)
RNA 1: CACCCGUGCAAAAAUGCAGGGGUCUAAAACUGAGCGGAUAACCUCUCUAUGG
RNA 2: GGGAAUGGAUCCACAUCUACGAAUUCGUACCAUAGAGAGGUUAUCCGUCUCAUCCGAGAUCGGAAGAGCACACGU
B16: target 1 insG 3' of 9,insU 3' of 6 (mixed)
RNA 1: CACCCGUGCAAAAAUGCAGGGGUCUAAAACUGAGCGGAUAACCUCUCUAUGG
RNA 2: GGGAAUGGAUCCACAUCUACGAAUUCGUACCAUAGAGAGGUUAGUCCUGCUCACCGAGAUCGGAAGAGCACACGU
B17: target 1 insU 3' of 5,insA 3' of 3 (mixed)
RNA 1: CACCCGUGCAAAAAUGCAGGGGUCUAAAACUGAGCGGAUAACCUCUCUAUGG
RNA 2: GGGAAUGGAUCCACAUCUACGAAUUCGUACCAUAGAGAGGUUAUCCGUCUACACCGAGAUCGGAAGAGCACACGU
B18: target 1 insC 3' of 19,insC 3' of 3 (mixed)
RNA 1: CACCCGUGCAAAAAUGCAGGGGUCUAAAACUGAGCGGAUAACCUCUCUAUGG
RNA 2: GGGAAUGGAUCCACAUCUACGAAUUCGUACCAUCAGAGAGGUUAUCCGCUCCACCGAGAUCGGAAGAGCACACGU
B19: target 1 U3A,U8C (mixed)
RNA 1: CACCCGUGCAAAAAUGCAGGGGUCUAAAACUGAGCGGAUAACCUCUCUAUGG
RNA 2: GGGAAUGGAUCCACAUCUACGAAUUCGUACCAUAGAGAGGUUACCCGCACACCGAGAUCGGAAGAGCACACGU
B20: target 1 C2U,U8C (mixed)
RNA 1: CACCCGUGCAAAAAUGCAGGGGUCUAAAACUGAGCGGAUAACCUCUCUAUGG
RNA 2: GGGAAUGGAUCCACAUCUACGAAUUCGUACCAUAGAGAGGUUACCCGCUUACCGAGAUCGGAAGAGCACACGU
B21: target 1 G5A,U10A (mixed)
RNA 1: CACCCGUGCAAAAAUGCAGGGGUCUAAAACUGAGCGGAUAACCUCUCUAUGG
RNA 2: GGGAAUGGAUCCACAUCUACGAAUUCGUACCAUAGAGAGGUAAUCCACUCACCGAGAUCGGAAGAGCACACGU
B22: target 1 del4 (mixed)
RNA 1: CACCCGUGCAAAAAUGCAGGGGUCUAAAACUGAGCGGAUAACCUCUCUAUGG
RNA 2: GGGAAUGGAUCCACAUCUACGAAUUCGUACCAUAGAGAGGUUAUCCGUCACCGAGAUCGGAAGAGCACACGU
B23: target 1 insU 3' of 6,insC 3' of 3 (mixed)
RNA 1: CACCCGUGCAAAAAUGCAGGGGUCUAAAACUGAGCGGAUAACCUCUCUAUGG
RNA 2: GGGAAUGGAUCCACAUCUACGAAUUCGUACCAUAGAGAGGUUAUCCUGCUCCACCGAGAUCGGAAGAGCACACGU
B24: target 1 insC 3' of 19,insG 3' of 18 (mixed)
RNA 1: CACCCGUGCAAAAAUGCAGGGGUCUAAAACUGAGCGGAUAACCUCUCUAUGG
RNA 2: GGGAAUGGAUCCACAUCUACGAAUUCGUACCAUCAGGAGAGGUUAUCCGCUCACCGAGAUCGGAAGAGCACACGU
B25: target 1 insC 3' of 20,insU 3' of 5 (mixed)
RNA 1: CACCCGUGCAAAAAUGCAGGGGUCUAAAACUGAGCGGAUAACCUCUCUAUGG
RNA 2: GGGAAUGGAUCCACAUCUACGAAUUCGUACCACUAGAGAGGUUAUCCGUCUCACCGAGAUCGGAAGAGCACACGU
B26: target 1 insC 3' of 14,insA 3' of 13 (mixed)
RNA 1: CACCCGUGCAAAAAUGCAGGGGUCUAAAACUGAGCGGAUAACCUCUCUAUGG
RNA 2: GGGAAUGGAUCCACAUCUACGAAUUCGUACCAUAGAGACGAGUUAUCCGCUCACCGAGAUCGGAAGAGCACACGU
B27: target 1 U10A,G12A (mixed)
RNA 1: CACCCGUGCAAAAAUGCAGGGGUCUAAAACUGAGCGGAUAACCUCUCUAUGG
RNA 2: GGGAAUGGAUCCACAUCUACGAAUUCGUACCAUAGAGAGAUAAUCCGCUCACCGAGAUCGGAAGAGCACACGU
B28: target 1 insU 3' of 15,insA 3' of 3 (mixed)
RNA 1: CACCCGUGCAAAAAUGCAGGGGUCUAAAACUGAGCGGAUAACCUCUCUAUGG
RNA 2: GGGAAUGGAUCCACAUCUACGAAUUCGUACCAUAGAGUAGGUUAUCCGCUACACCGAGAUCGGAAGAGCACACGU

Biological target: T1, EsCas13d, nuclease-dead (Eubacterium siraeum, UniProt B0MS50, R295A;H300A;R849A;H854A)
T1 sequence: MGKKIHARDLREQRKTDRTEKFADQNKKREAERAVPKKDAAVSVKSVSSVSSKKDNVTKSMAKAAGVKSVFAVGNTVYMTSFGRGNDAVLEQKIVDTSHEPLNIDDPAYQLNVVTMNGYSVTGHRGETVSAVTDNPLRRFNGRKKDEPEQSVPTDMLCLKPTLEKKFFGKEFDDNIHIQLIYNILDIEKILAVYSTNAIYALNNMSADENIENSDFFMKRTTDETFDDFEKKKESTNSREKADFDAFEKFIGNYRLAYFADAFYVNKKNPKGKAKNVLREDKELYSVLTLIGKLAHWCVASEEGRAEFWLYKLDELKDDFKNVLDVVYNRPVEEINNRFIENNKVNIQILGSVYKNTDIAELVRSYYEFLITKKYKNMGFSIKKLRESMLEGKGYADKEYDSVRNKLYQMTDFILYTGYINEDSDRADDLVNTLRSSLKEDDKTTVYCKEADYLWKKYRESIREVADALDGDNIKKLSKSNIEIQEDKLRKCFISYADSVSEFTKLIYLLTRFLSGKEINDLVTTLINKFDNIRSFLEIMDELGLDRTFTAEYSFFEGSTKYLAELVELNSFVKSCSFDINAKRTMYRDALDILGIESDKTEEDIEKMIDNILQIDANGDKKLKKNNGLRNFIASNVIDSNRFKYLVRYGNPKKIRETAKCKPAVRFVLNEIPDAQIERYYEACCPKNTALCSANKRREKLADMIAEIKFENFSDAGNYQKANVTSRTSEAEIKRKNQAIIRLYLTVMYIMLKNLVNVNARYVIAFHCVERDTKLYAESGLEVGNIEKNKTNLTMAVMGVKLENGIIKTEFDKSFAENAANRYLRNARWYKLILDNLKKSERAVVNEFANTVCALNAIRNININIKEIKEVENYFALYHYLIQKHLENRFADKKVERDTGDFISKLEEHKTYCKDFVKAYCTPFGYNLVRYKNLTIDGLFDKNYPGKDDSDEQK
Assay: crRNA (strand 1, pre-loaded); Mg2+; 40 mM Tris-HCl pH 7.5, 150 mM NaCl, 6 mM MgCl2, 1 mM DTT, 0.1% Tween-20, 0.2 mg/ml BSA; 25 C; 10 min per concentration, then washed
Settings: tags: His6-TwinStrep-SUMO cleaved; N-terminal SNAP kept (SNAP-Surface 488); label: 3' end held by stalled T7 RNA polymerase

Binder | Kd
B1 | 39.7 ± 3.3 nM
B2 | 11.5 ± 0.7 nM
B3 | 42 ± 5 nM
B4 | 12.7 ± 0.9 nM
B5 | 7.7 ± 0.6 nM
B6 | 9.5 ± 0.4 nM
B7 | 12.7 ± 0.8 nM
B8 | 8.4 ± 0.5 nM
B9 | 47 ± 9 nM
B10 | 84 ± 27 nM
B11 | ~63 nM
B12 | 10.3 ± 0.5 nM
B13 | 18 ± 0.6 nM
B14 | ~45 nM
B15 | 13.5 ± 0.6 nM
B16 | 20.3 ± 1.2 nM
B17 | 19.9 ± 1.7 nM
B18 | 30 ± 4 nM
B19 | 7.6 ± 0.7 nM
B20 | 10.1 ± 0.8 nM
B21 | 84 ± 16 nM
B22 | 34 ± 7 nM
B23 | 10.5 ± 0.7 nM
B24 | 89 ± 19 nM
B25 | 8.6 ± 0.9 nM
B26 | 28 ± 7 nM
B27 | 5.86 ± 0.25 nM
B28 | 8.9 ± 0.6 nM
